Laboratory results as given in patent US8415106B2, “Cell-based screen for agents useful for reducing neuronal demyelination or promoting neuronal remyelination” (Myelin Repair Foundation, Inc., priority 2005, dated 2013).

Assays:
[1] = tested on: ER stress markers (BIP, CHOP, p-eIF-2α); test: ER stress markers in the corpus callosum during remyelination (real time PCR, Western blot); type: in vivo, mice
Experimental: Repression of remyelination by IFN-γ is associated with ER stress. […] To determine whether IFN-γ interferes with endoplasmic reticulum (ER) function in remyelinating oligodendrocytes, the expression of ER stress markers was monitored in the corpus callosum of mice expressing IFN-γ. The study was performed using the transgenic mice described in Example 1.
The level of mRNA encoding ER stress associated genes binding immunoglobulin protein/78 KDa glucose regulated protein (BIP/GRP78) and the CAATT enhancer-binding protein homologous protein/growth and DNA damage protein 153 (CHOP/GADD153), was determined using real time PCR, as described in Example 1 in the corpus callosum of the cuprizone treated mice of Example 1. The probes, sense and antisense primers that were used were: […]
The level of phosphorylated eIF-2α, which inhibits nucleotide exchange on the eIF-2 complex and attenuates most protein synthesis, was analyzed by Western blot, and the expression was colocalized by immunostaining CC1 antibodies as described above. Western blot analysis was performed as follows. The corpus callosum from 3 mice was rinsed in ice cold phosphate-buffered saline (PBS) and pooled, and immediately homogenized in 5 volumes of Triton X-100 buffer (20 mM HEPES pH 7.5, 150 mM NaCl, 1% Triton X-100, 10% glycerol, 1 mM EDTA, 10 mM tetrasodium pyrophosphate, 100 mM NaF, 17.5 mM β-glycerophosphate, 10 mM phenylmethylsulfonyl fluoride, 15 μg/ml aprotonin, and 6 μg/ml pepstatin A) using a motorized homogenizer. After incubation on ice for 15 min, the extracts were cleared by centrifugation at 14,000 rpm twice for 30 min each. The protein content of each extract was determined by protein assay (Bio-Rad). The extracts (40 μg) were separated by sodium dodecyl sulfate-polyacrylamide gel electrophoresis and transferred to nitrocellulose. […] The following primary antibodies were used: anti-eIF-2α (1:500; Santa Cruz, Santa Cruz, Calif.), anti-p-eIF-2α (1:1000, Cell signaling Technology), anti-CHOP (1:500; Santa Cruz) and anti-actin (1:1000; Sigma, St Louis, Mo.).

[2] = tested on: ER stress markers (BIP, CHOP, p-eIF-2α, caspase-12); test: ER stress markers in IFN-γ-treated cultured rat oligodendrocytes (real-time PCR, Western blot); type: cell-based
Experimental: To test whether apoptosis of oligodendrocytes that is induced by INF-γ affects ER stress, the effect on the morphology, the degree of apoptosis and the expression of ER markers was studied in a culture of oligodendrocyte precursor cells (OPC). Oligodendrocyte progenitors were cultured from neonatal rat brains (Baerwald, et al. (1998) J. Neurosci. Res. 52: 230-239). A mixed glial culture was grown in flasks in medium containing 10% fetal bovine serum (FBS), and when the astrocyte layer became confluent (10-14 days), oligodendrocyte progenitors were separated from astrocytes and microglia using an orbital shaker. Cells, greater than 95% of which were A2B5 positive, GFAP negative and CD11b negative, were cultured in 0.5% FBS containing medium, which also contained PDGF (10 ng/ml) and FGF (5 ng/ml) (both from R&D Systems, Minneapolis, Minn.). Then cells were switched to 0.5% FBS medium without PDGF and FGF for differentiation. After 5 days in the differentiating medium, approximately 40% of cells were positive for myelin protein 2′3′-cyclic nucleotide 3′-phosphodiestaerase (CNP). 70 U/ml recombinant rat IFN-γ (Calbiochem, La Jolla, Calif.) was added to the cells that had been allowed to differentiation for 5 days. […]
To determine whether INF-γ affects ER function, the RNA expression of ER markers binding immunoglobulin protein (BIP), CAAT enhancer binding protein homologous protein (CHOP), and caspase 12 was determined using real time PCR. […]
To determine the effect of INF-γ on the level of phosphorylated eIF-2α and caspase 12 proteins, western blot analysis was performed using the following antibodies anti-eIF-2α (1:500; Santa Cruz), anti-p-eIF-2α (1:1000, Cell signaling Technology), anti-caspase-12 (1:500; Santa Cruz) and anti-actin (1:1000; Sigma, St Louis, Mo.), and according to the following protocol. […] The protein content of each extract was determined by protein assay (Bio-Rad). […]

[3] = DOX− compared to control DOX+ mice

B1: IFN-γ: pleotropic cytokine secreted by activated T lymphocytes and natural killer cells; recombinant rat IFN-γ added to cultures or transgenically expressed in mouse CNS (protein, UniProt P01581 23-156, looked up)
Interferon gamma: QGTLIESLESLKNYFNSSSMDAMEGKSLLLDIWRNWQKDGNTKILESQIISFYLRLFEVLKDNQAISNNISVIESHLITNFFSNSKAKKDAFMSIAKFEVNNPQIQHKAVNELIRVIHQLSPESSLRKRKRSRC
[1]; [3]
  level of mRNA for BIP: approximately 2 fold
  level of mRNA for CHOP: approximately 2 fold
[1]; DOX− double transgenic mice
  level of phosphorylated eIF-2α (Western blot): approximately 1.8 fold
  level of the CHOP protein (Western blot): approximately 1.7 fold
[2]; 70 U/ml IFN-γ
  caspase-12 expression (real-time PCR): induction of caspase-12 was observed
[2]; 70 U/ml IFN-γ, oligodendroglial cultures
  level of phosphorylated eIF-2α (Western blot): significantly elevated
[2]; after 48 h of IFN-γ treatment
  level of the active fragment of caspase-12 (Western blot): strongly elevated
